# Values quoted from earlier work, collected in article PMC3386954.
# Molecular target: Capillary morphogenesis gene 2 protein (Homo sapiens) (UniProt P58335)
substance,measurement,value
Protective antigen (from UniProt P13423),Kd,> 0.17 nM
